The text below walks through data of PMC7647994 (2020).

For assay [1], the target named is H10-tagged zinc-binding domain of human CLPX (human). Description: SEC; Superose 12; H10PDIP38, ZBD, or both together; elution profiles from quantified protein bands.
Assay [2] shares this target. Description: pull-down; series of pull-down experiments to estimate the affinity of PDIP38 for the ZBD (Supplementary Fig. 3).
For assay [3], the target named is T1, H10-tagged zinc-binding domain of human CLPX (human).
T1 chain: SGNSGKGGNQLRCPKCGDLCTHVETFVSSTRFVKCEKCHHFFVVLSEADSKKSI

Like-named read-outs stand apart in the source and are kept apart here.

For “H10-tagged zinc-binding domain of human CLPX (domain or fragment)”, the stoichiometry N (as a rule, the number of molecules, sites or subunits per partner or assembly) in assay [1] was 2.

B1: untagged PDIP38 (natural protein)
chain: SSRNRPEGKVLETVGVFEVPKQNGKYETGQLFLHSIFGYRGVVLFPWQARLYDRDVASAAPEKAENPAGHGSKEVKGKTHTYYQVLIDARDCPHISQRSQTEAVTFLANHDDSRALYAIPGLDYVSHEDILPYTSTDQVPIQHELFERFLLYDQTKAPPFVARETLRAWQEKNHPWLELSDVHRETTENIRVTVIPFYMGMREAQNSHVYWWRYCIRLENLDSDVVQLRERHWRIFSLSGTLETVRGRGVVGREPVLSKEQPAFQYSSHVSLQASSGHMWGTFRFERPDGSHFDVRIPPFSLESNKDEKTPPSGLHW
With B1, the dissociation constant Kd (commonly the concentration at which binding is half-saturated) in assay [2] is 1800 nM.

B2: His10-tagged recombinant PDIP38 (H10PDIP38) (natural protein)
chain: B1 chain
For B2, the stoichiometry N (PDIP38 per ZBD2) in assay [1] is 1.

B3: GST-PDIP38 fusion protein (natural protein)
chain: B1 chain
Take B3: the Kd in assay [3] was ~1800 nM.
